From paper PMC5493658, “Post-secretional activation of Protease IV by quorum sensing in Pseudomonas aeruginosa” (Scientific Reports, 2017) come the findings set out here.

The experiment addresses T1, P-PIV: His-tagged protease IV (PIV) purified from PAO-T7 (Pseudomonas aeruginosa, UniProt Q9HWK6 212-462).
T1 construct: Protease IV (PIV), lysyl-endopeptidase encoded by piv, Pseudomonas aeruginosa; 26 kDa mature PIV left after removal of the signal peptide and the propeptide (residues 1-211 of the 48 kDa prepro-PIV); because the N-terminus is processed twice during secretion it is probably C-terminal (surmise); also called His-tagged active PIV; mature PIV; source: P. aeruginosa PAO-T7 harboring pQF21c-PIV, …
T1 sequence: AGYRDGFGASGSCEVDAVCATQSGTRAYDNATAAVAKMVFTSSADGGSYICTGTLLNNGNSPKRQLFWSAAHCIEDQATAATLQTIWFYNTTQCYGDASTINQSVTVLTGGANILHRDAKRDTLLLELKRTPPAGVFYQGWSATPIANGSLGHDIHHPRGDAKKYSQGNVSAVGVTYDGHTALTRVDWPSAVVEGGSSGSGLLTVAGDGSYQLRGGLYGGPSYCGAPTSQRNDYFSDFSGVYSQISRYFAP
Briefly: pull-down; 1 ug purified propeptide mixed with 1 ug His-tagged P-PIV in 25 ul, room temperature 10 min; loaded on Ni-NTA agarose column, washed twice with 5 mM imidazole, eluted with 200 mM imidazole; SDS-PAGE. The following applies: both partners purified.

B1: propeptide of PIV purified from E. coli (domain or fragment)
chain: APGASEMAGDVAVLQASPASTGHARFANPNAAISAAGIHFAAPPARRVARAAPLAPKPGTPLQVGVGLKTATPEIDLTTLEWIDTPDGRHTARFPISAAGAASLRAAIRLETHSGSLPDDVLLHFAGAGKEIFEASGKDLSVNRPYWSPVIEGDTLTVELVLPANLQPGDLRLSVPQVSYFADSLYK
notes: Propeptide of protease IV (PIV), Pseudomonas aeruginosa; expressed as residues 1-211 of prepro-PIV (signal peptide and propeptide); also called purified propeptide; PP; source: E. coli BL21 (DE3) harboring pET16b-pro, purified (Ni-NTA, Q sepharose, size exclusion chromatography); not shown: His tag, N-terminal, cleaved
For the molecule B1, the binding result is recorded as “binds”.
